From patent US20160304604A1 (H LUNDBECK A S, published 2016)

T1: human PACAP27 (human, C-terminal leucine is amidated)
T1 peptide: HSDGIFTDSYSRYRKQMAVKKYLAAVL

T2: human PACAP38 (human, not fully specified; C-terminal lysine is amidated)
T2 peptide: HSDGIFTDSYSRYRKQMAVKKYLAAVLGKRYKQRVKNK

T3: PAC1-R on PC-12 cells (UniProt P32215 20-523)
T3 construct: whole, on cells; Endogenous receptor of PC-12 cells; also called PAC1 receptor; PAC1-R-expressing PC-12 cells
T3 sequence (looked up): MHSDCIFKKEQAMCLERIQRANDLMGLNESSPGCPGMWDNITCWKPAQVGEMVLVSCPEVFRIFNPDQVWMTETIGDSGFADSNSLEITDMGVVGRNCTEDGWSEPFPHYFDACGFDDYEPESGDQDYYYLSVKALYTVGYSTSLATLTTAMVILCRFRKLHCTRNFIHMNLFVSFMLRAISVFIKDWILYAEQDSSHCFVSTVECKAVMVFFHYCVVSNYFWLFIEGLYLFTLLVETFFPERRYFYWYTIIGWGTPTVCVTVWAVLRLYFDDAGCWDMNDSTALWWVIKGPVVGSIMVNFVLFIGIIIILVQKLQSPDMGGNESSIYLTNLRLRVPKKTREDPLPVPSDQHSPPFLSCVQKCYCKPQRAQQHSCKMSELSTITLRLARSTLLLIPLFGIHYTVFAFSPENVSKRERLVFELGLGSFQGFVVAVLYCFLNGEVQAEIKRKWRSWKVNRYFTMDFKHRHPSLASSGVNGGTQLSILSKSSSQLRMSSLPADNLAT


Tests used:
human PACAP27 [1] = target: T1, human PACAP27; assay: SPR (ProteOn XPR36), antibody amine-coupled to chip, PACAP27 as analyte 1.23-1000 nM
human PACAP38 [2] = target: T2, human PACAP38; assay: cell-based or functional assay
human PACAP38 [3] = target: T2, human PACAP38; assay: SPR (ProteOn XPR36), antibody amine-coupled to chip, PACAP38 as analyte 1.23-100 nM, 1:1 Langmuir fit
Description: Binding affinities of monoclonal antibodies for human PACAP were estimated using SPR on the PROTEON™ XPR36 (Bio-Rad, Hercules, Calif.). Antibody was immobilized to the surface of general amine coupling (“GLC” or “GLM”) Chips (Bio-Rad, Hercules, Calif.). A dilution series of human PACAP38 (SEQ ID NO: 1241) prepared in 1×PBST Buffer (4.3 mM Na Phosphate, 1.4 mM K Phosphate, 135 mM NaCl, 2.7 mM KCl 0.05% Polysorbate-20) purchased from Teknova (Cat# P1192, Teknova, Hollister, Calif.) and supplemented with 0.25 M arginine (from J. T. BAKER®), 0.2 mg/ml BSA (Jackson Immuno Research Labs, West Grove, Pa.), and 0.005% sodium azide (VWR International, Radnor, Pa.) with the pH adjusted to 7 was used to query the antibodies. Antigen (ranging from 1.23 nM to 100 nM) was typically run sequentially with association times of 2-4 minutes and dissociation times of 3-120 minutes grouped with the PROTEON™ Manager Software (v3.1.0.6 (Bio-Rad, Hercules, Calif.)) and fitted using a 1:1 Langmuir binding model. Surfaces were regenerated between analyte queries using 0.85% Phosphoric Acid.

human PACAP27 [4] = target: T1, human PACAP27; assay: cell-based or functional assay
human PACAP38 [5] = target: T2, human PACAP38; assay: cell-based or functional assay
human PACAP38 [6] = target: T2, human PACAP38; assay: cell-based or functional assay
PAC1-R on PC-12 cells = target: T3, PAC1-R on PC-12 cells; assay: DELFIA TRF cell-surface binding assay: antibody pre-incubated with PACAP38 (200 nM stock mixed 1:1), added to PAC1-R-expressing PC-12 cells, Eu anti-human IgG detection
Description: Cells were initially seeded at 1×10⁵ cells/well in a solution of complete RPMI (“cRPMI”: RPMI medium supplemented with 10% sterile heat-inactivated FBS and 1% sterile antibiotic/antimycotic)+10% FBS, and the plates were allowed to incubate overnight at 37° C. On the day of the binding assay, antibodies at an initial concentration of 15 μg/ml were diluted at a 1:3 ratio in DELFIA® binding buffer (50 mM Tris, 150 mM NaCl, 0.1% azide, 2% horse serum) (Perkin-Elmer, Waltham, Mass.) to a total volume of 60 μL in a separate 96 well round bottom plate. PACAP38 was prepared for the binding assay by diluting it in DELFIA® binding buffer to a concentration of 200 nM, and then 60 μl of the diluted PACAP38 was added to each of the antibody-containing wells to form antibody:antigen complexes. Following addition of PACAP38, the antibody:antigen complexes were incubated at room temperature on a shaker for 1 hour. […]
DELFIA® Europium labeled anti-human IgG detection reagent (Cat #1244-330, Perkin-Elmer, Waltham, Mass.) was diluted to a concentration of 300 ng/ml in DELFIA® Binding Buffer. […] The plates were then read (TRF, excitation 330 nm, emission 620 nm) on a SPECTRAMAX® (Molecular Devices, Sunnyvale, Calif.) plate reader.

Binder | Kd (human PACAP27 [1]) [nM] | koff (human PACAP27 [1]) [s⁻¹] | Inhibition of 5 nM PACAP38-induced human VPAC1-R mediated cAMP increase IC50 (CHO-K1 cells, HTRF) (human PACAP38 [2]) [nM] | Kd (human PACAP38 [3]) [nM] | koff (human PACAP38 [3]) [s⁻¹] | Inhibition of 0.1 nM PACAP27-induced PAC1-R mediated cAMP increase IC50 (PC-12 cells, HTRF) (human PACAP27 [4]) [nM] | Inhibition of 0.1 nM PACAP38-induced PAC1-R mediated cAMP increase IC50 (PC-12 cells, HTRF) (human PACAP38 [5]) [nM] | Inhibition of 1 nM PACAP38-induced human VPAC2-R mediated cAMP increase IC50 (CHO-K1 cells, HTRF) (human PACAP38 [6]) [nM] | binding result (PAC1-R on PC-12 cells)
Ab21.H (antibody, V domains shown) VH: EVQLVESGGGLVQPGGSLRLSCAASGIDLSSYYMTWVRQAPGKGLEWIGFIDAGGSAYYATWAKGRFTISRDNSKNTVYLQMNSLRAEDTAVYFCARDLDLWGQGTLVTVSS VL: DAQLTQSPSTLSASVGDRVTITCKSSESVYGDYLAWFQQKPGKAPKQLIYDASTLASGVPSRFSGSGSGTEFTLTISSLQPDDFATYYCAGGYVSAGVAFGGGTKVEIKR | 0.016 | 1e-05 | 2.1 | 0.021 | 1e-05 | 0.204 | 0.246 | 1.51 | –
Ab10 (antibody, human IgG1, kappa, N297A, V domains shown, also called anti-PACAP antibody Ab10) VH: QSVEESGGRLVTPGTPLTLTCTVSGIDLNSYYMTWVRQAPGKGLEWIGFIDAGGDAYYASWAKGRFTISKTSTTVDLKITSPTTEDTATYFCARDLDLWGQGTLVTVSS VL: AAVLTQTPSPVSAAVGGTVTINCQSSESVYGNYLAWFQQKPGQPPKLLIYEASKLESGVPSRFSGSGSGTQFTLTISDLQCDDAATYYCAGGDISEGVAFGGGTEVVVKR | – | – | 0.649 | – | – | 0.227 | 0.18 | 0.189 | no binding (tested: about 5000 nM (last point as drawn))
Ab21 (antibody, human IgG1, kappa, N297A, V domains shown) VH: QSVEESGGRLVTPGTPLTLTCTVSGIDLSSYYMTWVRQAPGKGLEWVGFIDAGGSAYYATWAKGRFTISKASTTVDLKITSPTTEDTATYFCARDLDLWGPGTLVTVSS VL: AAVLTQTPSPVSAAVGGTVSISCKSSESVYGDYLAWFQQKPGQPPKQLIYDASTLASGVPSRFKGSGSGTQFTLTISGVQCDDAATYYCAGGYVSAGVAFGGGTEVVVKR | – | – | 2.85 | – | – | 0.14 | 0.239 | 5.21 | –
Ab20 (antibody, human IgG1, kappa, N297A, V domains shown) VH: QSVEESGGRLVTPGTPLTLTCTVSGIDLSSYYMSWVRQAPGKGLEWIGFIDTDGSAYYATWAKGRFTISKTSTTVDLKITSPTTEDTATYFCARDLDLWGPGTLVTVSS VL: AAVLTQTPSPVSAAVGGTVSISCQSSESVYSNYLAWFQQKPGQPPKFLIYEASKLASGVPSRFKGSGSGTQFTLTISDVQCDDAGTYYCAGGYSSEGVAFGGGTEVVVKR | – | – | 3.89 | – | – | 0.188 | 0.368 | 14.6 | –
